Where a SMILES comes first, the peptide text is derived from it. [ ]: non-standard residue; d: D form. The star is where a group is joined. X1 = O=C(CCCCCCCn1cnc2c(Br)c(Br)c(Br)c(Br)c21)*
How the values were obtained:
Assay in all cases: Kinase panel residual activity
Format in all cases: biochemical
Details in all cases: compound at 1 micromolar
HIPK2 = HIPK2 (Homo sapiens, UniProt Q9H2X6)
Src = Src (Homo sapiens, UniProt P12931)
PIM1 = PIM1 (Homo sapiens, UniProt P11309)
CDK2-Cyclin A = CDK2-Cyclin A (Homo sapiens, UniProt P24941)
SIK3 = SIK3 (Homo sapiens, UniProt Q9Y2K2)
MAP4K3 = biological target: T1, MAP4K3 (Homo sapiens, UniProt Q8IVH8)
T1 sequence (Q8IVH8 1-894): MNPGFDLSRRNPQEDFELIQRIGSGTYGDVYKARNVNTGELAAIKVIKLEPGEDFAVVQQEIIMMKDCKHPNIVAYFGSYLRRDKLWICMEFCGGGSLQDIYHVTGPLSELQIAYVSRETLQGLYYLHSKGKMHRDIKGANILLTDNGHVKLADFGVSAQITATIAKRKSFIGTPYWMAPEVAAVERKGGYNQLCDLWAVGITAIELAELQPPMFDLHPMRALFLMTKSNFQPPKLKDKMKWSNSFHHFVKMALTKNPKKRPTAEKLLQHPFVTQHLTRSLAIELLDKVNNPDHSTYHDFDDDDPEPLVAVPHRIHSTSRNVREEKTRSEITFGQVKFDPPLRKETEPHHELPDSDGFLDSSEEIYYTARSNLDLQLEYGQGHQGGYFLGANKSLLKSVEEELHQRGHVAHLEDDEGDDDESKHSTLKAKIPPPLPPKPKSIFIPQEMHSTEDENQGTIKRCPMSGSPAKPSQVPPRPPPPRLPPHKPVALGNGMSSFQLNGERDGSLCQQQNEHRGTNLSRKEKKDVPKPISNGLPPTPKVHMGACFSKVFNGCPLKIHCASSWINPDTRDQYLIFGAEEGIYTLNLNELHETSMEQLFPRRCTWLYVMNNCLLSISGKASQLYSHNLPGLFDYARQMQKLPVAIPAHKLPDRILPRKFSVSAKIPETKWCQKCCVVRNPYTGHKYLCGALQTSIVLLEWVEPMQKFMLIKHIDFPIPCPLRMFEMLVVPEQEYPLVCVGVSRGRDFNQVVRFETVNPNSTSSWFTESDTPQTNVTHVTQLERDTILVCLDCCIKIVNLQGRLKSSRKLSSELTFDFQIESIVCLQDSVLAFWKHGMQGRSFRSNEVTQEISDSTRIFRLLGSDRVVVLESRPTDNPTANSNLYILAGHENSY

MNK2 = MNK2 (Homo sapiens, UniProt Q9HBH9)
p38d MAPK = biological target: T2, p38d MAPK (Homo sapiens, UniProt O15264)
T2 sequence (O15264 1-365): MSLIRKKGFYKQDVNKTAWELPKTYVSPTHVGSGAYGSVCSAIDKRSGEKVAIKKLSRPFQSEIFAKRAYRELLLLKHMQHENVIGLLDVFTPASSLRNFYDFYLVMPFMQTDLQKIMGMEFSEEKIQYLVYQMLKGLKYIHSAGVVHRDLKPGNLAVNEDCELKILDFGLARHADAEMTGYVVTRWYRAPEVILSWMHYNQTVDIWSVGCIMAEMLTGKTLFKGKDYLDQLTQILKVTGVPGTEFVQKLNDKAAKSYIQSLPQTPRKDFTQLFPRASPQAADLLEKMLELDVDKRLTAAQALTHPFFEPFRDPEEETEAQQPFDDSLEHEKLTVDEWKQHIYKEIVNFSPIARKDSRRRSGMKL

ASK1 = biological target: T3, ASK1 (Homo sapiens, UniProt Q99683)
T3 sequence (Q99683 1-1374): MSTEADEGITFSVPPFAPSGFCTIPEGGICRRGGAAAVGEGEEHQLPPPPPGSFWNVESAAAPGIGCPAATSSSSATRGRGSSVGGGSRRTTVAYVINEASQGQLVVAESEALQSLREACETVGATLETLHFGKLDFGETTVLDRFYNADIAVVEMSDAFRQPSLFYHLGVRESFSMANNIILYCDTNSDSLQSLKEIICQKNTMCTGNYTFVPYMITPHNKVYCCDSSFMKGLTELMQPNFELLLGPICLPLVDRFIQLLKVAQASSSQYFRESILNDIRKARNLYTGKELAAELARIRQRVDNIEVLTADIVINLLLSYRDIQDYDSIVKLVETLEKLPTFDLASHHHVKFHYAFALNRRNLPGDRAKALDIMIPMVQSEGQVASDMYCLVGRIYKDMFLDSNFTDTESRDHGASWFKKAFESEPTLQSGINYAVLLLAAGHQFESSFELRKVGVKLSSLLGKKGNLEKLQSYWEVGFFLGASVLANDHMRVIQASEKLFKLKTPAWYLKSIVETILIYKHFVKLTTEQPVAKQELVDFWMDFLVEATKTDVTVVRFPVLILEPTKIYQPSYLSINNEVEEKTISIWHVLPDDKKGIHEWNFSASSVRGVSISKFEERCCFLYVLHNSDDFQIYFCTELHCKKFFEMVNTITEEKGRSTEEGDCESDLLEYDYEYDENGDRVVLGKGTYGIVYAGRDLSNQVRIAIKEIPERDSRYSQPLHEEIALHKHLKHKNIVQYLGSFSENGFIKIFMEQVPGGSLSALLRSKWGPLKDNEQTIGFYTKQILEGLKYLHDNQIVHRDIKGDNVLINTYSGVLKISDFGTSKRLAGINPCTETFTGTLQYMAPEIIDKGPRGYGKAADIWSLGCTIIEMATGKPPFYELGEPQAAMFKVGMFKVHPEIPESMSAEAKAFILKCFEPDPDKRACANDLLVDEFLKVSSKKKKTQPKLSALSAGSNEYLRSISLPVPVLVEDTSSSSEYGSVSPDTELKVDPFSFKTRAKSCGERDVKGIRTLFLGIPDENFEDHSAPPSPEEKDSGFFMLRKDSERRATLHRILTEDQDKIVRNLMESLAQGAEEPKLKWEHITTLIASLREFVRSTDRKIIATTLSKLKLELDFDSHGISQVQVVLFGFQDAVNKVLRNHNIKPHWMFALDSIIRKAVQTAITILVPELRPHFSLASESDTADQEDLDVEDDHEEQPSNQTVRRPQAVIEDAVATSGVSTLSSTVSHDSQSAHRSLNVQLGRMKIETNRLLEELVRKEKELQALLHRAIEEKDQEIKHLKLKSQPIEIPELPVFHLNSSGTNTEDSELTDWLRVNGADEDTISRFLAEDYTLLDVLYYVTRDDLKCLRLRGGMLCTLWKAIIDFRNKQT

Chain of HIPK2 (Q9H2X6 whole entry, species assumed): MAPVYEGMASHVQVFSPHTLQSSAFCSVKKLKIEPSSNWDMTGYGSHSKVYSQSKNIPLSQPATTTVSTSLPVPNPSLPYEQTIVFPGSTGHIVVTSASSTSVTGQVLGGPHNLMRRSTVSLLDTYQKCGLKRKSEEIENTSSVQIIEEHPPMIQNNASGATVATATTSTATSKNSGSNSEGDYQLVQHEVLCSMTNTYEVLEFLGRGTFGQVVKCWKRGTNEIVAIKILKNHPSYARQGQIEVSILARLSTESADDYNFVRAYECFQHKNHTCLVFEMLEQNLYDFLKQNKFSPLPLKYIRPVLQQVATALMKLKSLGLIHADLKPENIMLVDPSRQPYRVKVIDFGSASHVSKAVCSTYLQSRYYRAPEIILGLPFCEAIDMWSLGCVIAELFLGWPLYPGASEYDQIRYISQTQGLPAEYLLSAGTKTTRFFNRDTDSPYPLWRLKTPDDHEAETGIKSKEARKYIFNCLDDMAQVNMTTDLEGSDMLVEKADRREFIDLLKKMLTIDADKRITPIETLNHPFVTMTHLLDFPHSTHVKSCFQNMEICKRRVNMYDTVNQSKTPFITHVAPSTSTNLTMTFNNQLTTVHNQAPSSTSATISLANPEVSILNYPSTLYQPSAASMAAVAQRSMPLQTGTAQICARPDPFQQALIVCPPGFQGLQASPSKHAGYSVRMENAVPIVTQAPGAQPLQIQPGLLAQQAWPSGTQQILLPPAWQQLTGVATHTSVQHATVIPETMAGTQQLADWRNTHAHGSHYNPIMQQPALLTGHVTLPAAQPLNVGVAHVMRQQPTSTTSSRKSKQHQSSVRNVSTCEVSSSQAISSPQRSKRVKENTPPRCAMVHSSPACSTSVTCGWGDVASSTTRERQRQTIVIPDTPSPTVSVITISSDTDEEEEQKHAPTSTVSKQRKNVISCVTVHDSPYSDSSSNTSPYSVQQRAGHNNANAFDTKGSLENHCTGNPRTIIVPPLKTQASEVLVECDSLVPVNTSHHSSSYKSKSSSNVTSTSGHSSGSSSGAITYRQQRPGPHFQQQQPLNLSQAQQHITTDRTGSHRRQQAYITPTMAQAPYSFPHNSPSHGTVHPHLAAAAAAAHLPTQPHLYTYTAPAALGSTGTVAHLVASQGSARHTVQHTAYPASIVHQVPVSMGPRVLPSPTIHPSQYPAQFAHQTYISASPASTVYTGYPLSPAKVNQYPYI
Chain of Src (P12931 whole entry, species assumed): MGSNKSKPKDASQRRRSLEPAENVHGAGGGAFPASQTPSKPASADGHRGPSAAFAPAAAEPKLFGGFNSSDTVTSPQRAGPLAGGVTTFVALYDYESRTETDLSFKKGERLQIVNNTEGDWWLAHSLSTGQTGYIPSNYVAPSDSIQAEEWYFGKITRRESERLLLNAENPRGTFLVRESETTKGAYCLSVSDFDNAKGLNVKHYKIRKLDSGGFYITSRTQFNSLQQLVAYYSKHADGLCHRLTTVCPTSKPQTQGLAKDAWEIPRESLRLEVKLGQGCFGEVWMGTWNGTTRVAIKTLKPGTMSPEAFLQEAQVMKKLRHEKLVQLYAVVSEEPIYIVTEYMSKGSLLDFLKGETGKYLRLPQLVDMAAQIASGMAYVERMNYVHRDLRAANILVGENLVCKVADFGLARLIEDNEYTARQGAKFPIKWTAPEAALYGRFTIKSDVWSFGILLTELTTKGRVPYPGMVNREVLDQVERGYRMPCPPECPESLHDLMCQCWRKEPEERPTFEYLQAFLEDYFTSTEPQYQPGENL
Chain of MNK2 (Q9HBH9 whole entry, species assumed): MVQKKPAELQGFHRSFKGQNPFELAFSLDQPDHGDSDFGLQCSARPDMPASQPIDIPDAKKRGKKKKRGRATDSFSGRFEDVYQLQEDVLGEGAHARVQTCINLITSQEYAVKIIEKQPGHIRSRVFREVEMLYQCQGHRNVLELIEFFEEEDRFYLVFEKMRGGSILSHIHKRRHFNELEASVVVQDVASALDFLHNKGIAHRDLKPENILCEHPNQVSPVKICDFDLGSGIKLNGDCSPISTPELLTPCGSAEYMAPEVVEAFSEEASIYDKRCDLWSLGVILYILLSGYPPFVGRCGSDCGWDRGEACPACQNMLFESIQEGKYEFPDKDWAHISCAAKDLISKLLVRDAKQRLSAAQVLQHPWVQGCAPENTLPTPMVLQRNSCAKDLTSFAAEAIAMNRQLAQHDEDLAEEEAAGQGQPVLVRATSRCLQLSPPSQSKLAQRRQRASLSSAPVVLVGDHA
Chain of PIM1 (P11309 whole entry, species assumed): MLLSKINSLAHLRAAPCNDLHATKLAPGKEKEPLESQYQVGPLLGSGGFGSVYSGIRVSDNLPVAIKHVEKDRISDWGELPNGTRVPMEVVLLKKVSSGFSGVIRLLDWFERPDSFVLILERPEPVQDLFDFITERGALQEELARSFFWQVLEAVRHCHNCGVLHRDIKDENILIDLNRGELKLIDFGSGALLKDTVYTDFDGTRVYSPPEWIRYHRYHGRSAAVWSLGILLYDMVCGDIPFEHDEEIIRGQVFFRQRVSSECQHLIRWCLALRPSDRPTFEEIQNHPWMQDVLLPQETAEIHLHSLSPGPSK
Chain of SIK3 (Q9Y2K2 whole entry, species assumed): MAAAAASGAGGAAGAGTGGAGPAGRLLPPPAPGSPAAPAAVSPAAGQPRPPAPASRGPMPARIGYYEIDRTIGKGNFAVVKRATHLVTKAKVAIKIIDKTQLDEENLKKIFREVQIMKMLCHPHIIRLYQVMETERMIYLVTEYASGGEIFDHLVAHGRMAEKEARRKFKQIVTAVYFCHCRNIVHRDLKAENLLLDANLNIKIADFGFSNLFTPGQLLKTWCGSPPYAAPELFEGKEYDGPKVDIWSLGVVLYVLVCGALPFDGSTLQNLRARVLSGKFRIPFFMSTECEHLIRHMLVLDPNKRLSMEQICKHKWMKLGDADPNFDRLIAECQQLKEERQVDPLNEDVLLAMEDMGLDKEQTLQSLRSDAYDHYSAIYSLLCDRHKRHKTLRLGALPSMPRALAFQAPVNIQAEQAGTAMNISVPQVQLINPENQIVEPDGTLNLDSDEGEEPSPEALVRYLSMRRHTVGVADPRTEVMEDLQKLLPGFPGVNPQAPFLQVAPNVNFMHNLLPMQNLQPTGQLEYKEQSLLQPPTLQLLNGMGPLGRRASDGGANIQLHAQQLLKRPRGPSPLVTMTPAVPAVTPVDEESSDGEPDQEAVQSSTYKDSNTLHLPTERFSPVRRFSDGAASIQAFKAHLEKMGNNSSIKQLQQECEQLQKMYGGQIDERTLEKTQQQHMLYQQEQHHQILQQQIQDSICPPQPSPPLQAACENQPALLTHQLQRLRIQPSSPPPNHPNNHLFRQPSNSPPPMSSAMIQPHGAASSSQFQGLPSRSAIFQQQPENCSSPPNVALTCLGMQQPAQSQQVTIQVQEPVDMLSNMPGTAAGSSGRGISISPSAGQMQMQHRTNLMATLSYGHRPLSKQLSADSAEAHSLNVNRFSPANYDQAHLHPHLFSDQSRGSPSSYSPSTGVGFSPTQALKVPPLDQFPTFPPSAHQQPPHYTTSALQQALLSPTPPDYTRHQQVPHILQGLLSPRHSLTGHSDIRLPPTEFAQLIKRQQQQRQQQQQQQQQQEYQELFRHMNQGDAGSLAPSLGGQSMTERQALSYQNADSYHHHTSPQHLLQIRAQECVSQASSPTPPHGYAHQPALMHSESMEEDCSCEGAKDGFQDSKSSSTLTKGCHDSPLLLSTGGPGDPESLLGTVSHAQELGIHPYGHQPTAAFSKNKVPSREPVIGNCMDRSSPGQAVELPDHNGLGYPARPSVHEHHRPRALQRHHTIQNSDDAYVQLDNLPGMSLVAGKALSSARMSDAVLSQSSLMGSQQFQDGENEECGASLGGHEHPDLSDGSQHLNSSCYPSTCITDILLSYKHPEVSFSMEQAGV

Work on NCCCC[C@H](NC(=O)[C@H](CC(=O)O)NC(=O)[C@H](CC(=O)O)NC(=O)[C@H](CC(=O)O)NC(=O)[C@H](CC(=O)O)NC(=O)[C@H](CC(=O)O)NC(=O)[C@@H](CC(=O)O)NC(=O)CCCCCCCn1cnc2c(Br)c(Br)c(Br)c(Br)c21)C(=O)O [TBBI-OcA-(D-Asp)-(L-Asp)5-(L-Lys)-OH] (X1-[dD]DDDDDK-OH) yielded a remaining activity at 1 µM (HIPK2) of 36%, a remaining activity at 1 µM (Src) of 57% and a remaining activity at 1 µM (PIM1) of 62%. It also gave a remaining activity at 1 µM (CDK2-Cyclin A) of 64%, a remaining activity at 1 µM (SIK3) of 74% and a remaining activity at 1 µM (MAP4K3) of 86%. For the same molecule, the remaining activity at 1 µM (MNK2) was 89%, the remaining activity at 1 µM (p38d MAPK) was 93% and the remaining activity at 1 µM (ASK1) was 114%.

— patent publication US9176064B2, “Bisubstrate fluorescent probes for protein kinase CK2” (University of Tartu, priority 2012, dated 2015)
